Measurements published in the Human Domainome abundance scans (Beltran et al. 2025).
± gives the uncertainty stated by the source.

B1: Cold shock protein CspB, residues 1 to 66; numbered along this chain, P41016 (parent)
chain: MQRGKVKWFNNEKGYGFIEVEGGSDVFVHFTAIQGEGFKTLEEGQEVSFEIVQGNRGPQAANVVKL

Variants of: B1
Assay: abundance fitness (aPCA) (normalised: wild type 0, dead -1); higher = more abundant; growth selection in yeast, the domain comes from the species named
Details: Bacillus caldolyticus

Variant | abundance fitness
S24L | -0.002 ± 0.033
S24M | -0.019 ± 0.055
S24N | 0.004 ± 0.081
S24P | 0.012 ± 0.057
S24Q | -0.004 ± 0.055
S24R | 0.01 ± 0.029
S24T | 0.003 ± 0.047
S24V | -0.016 ± 0.039
S24W | -0.031 ± 0.039
S24Y | -0.016 ± 0.084
D25A | -0.113 ± 0.04
D25E | -0.082 ± 0.043
D25F | -0.251 ± 0.054
D25G | -0.257 ± 0.047
D25H | -0.102 ± 0.064
D25I | -0.214 ± 0.063
D25K | -0.093 ± 0.046
D25M | -0.153 ± 0.043
D25N | -0.047 ± 0.08
D25P | -0.093 ± 0.036
D25Q | -0.073 ± 0.054
D25S | -0.053 ± 0.032
D25T | -0.073 ± 0.041
D25V | -0.141 ± 0.035

Variant | abundance fitness
D25W | -0.26 ± 0.036
D25Y | -0.231 ± 0.06
V26C | -0.053 ± 0.048
V26D | -0.529 ± 0.06
V26E | -0.372 ± 0.043
V26F | -0.11 ± 0.054
V26G | -0.573 ± 0.036
V26H | -0.132 ± 0.075
V26I | -0.017 ± 0.045
V26K | -0.251 ± 0.059
V26M | -0.056 ± 0.043
V26P | -0.566 ± 0.038
V26Q | -0.173 ± 0.04
V26R | -0.248 ± 0.032
V26S | -0.195 ± 0.029
V26W | -0.23 ± 0.035
V26Y | -0.074 ± 0.054
F27A | -0.206 ± 0.037
F27C | -0.243 ± 0.047
F27E | -0.183 ± 0.041
F27G | -0.229 ± 0.031
F27H | -0.075 ± 0.077
F27I | -0.208 ± 0.056
F27L | -0.187 ± 0.029

Variant | abundance fitness
F27M | -0.169 ± 0.049
F27N | -0.335 ± 0.1
F27P | -0.161 ± 0.042
F27Q | -0.208 ± 0.04
F27R | -0.176 ± 0.028
F27S | -0.212 ± 0.03
F27W | -0.102 ± 0.035
F27Y | 0.003 ± 0.054
V28A | -0.1 ± 0.045
V28C | 0.017 ± 0.048
V28D | -0.912 ± 0.14
V28E | -1.1 ± 0.15
V28F | -0.062 ± 0.058
V28G | -0.638 ± 0.041
V28H | -1.04 ± 0.21
V28I | -0.048 ± 0.05
V28L | -0.107 ± 0.029
V28M | -0.153 ± 0.055
V28N | -0.999 ± 0.34
V28P | -0.693 ± 0.088
V28Q | -0.901 ± 0.084
V28R | -0.993 ± 0.05
V28S | -0.355 ± 0.03
V28T | -0.05 ± 0.047

Variant | abundance fitness
V28W | -0.675 ± 0.036
V28Y | -0.27 ± 0.061
H29A | -0.532 ± 0.39
H29I | -0.538 ± 0.16
H29K | -0.197 ± 0.13
H29L | -0.48 ± 0.12
H29M | -0.274 ± 0.13
H29N | -0.228 ± 0.12
H29Q | -0.174 ± 0.15
H29R | -0.281 ± 0.11
H29S | -0.345 ± 0.14
H29T | -0.28 ± 0.12
H29V | -0.506 ± 0.28
H29Y | -0.149 ± 0.052
F30A | -0.035 ± 0.047
F30C | -0.091 ± 0.052
F30D | -0.188 ± 0.068
F30G | -0.089 ± 0.04
F30H | -0.023 ± 0.067
F30I | -0.087 ± 0.068
F30K | -0.016 ± 0.057
F30L | -0.103 ± 0.027
F30M | -0.169 ± 0.047
F30N | -0.07 ± 0.077

Variant | abundance fitness
F30P | -0.227 ± 0.05
F30Q | -0.025 ± 0.074
F30S | -0.047 ± 0.036
F30T | -0.127 ± 0.05
F30V | -0.049 ± 0.047
F30W | -0.026 ± 0.051
F30Y | 0.011 ± 0.041
T31A | -0.134 ± 0.049
T31C | -0.146 ± 0.05
T31D | -0.141 ± 0.11
T31E | -0.087 ± 0.068
T31F | -0.431 ± 0.052
T31G | -0.079 ± 0.044
T31H | -0.074 ± 0.077
T31I | -0.314 ± 0.053
T31K | -0.066 ± 0.054
T31M | -0.13 ± 0.044
T31N | -0.127 ± 0.066
T31Q | -0.132 ± 0.061
T31R | -0.044 ± 0.028
T31S | -0.011 ± 0.032
T31V | -0.345 ± 0.043
T31W | -0.289 ± 0.035
T31Y | -0.3 ± 0.055

Variant | abundance fitness
A32C | -0.083 ± 0.048
A32D | -0.129 ± 0.055
A32F | -0.129 ± 0.058
A32G | -0.02 ± 0.037
A32H | -0.099 ± 0.061
A32I | -0.666 ± 0.068
A32K | -0.044 ± 0.049
A32L | -0.472 ± 0.025
A32M | -0.103 ± 0.048
A32N | -0.045 ± 0.058
A32P | -0.507 ± 0.043
A32Q | 0.023 ± 0.055
A32R | -0.084 ± 0.036
A32S | -0.032 ± 0.034
A32T | -0.105 ± 0.039
A32W | -0.351 ± 0.05
A32Y | -0.263 ± 0.063
I33A | -0.311 ± 0.038
I33C | -0.127 ± 0.052
I33D | -0.369 ± 0.057
I33E | -0.477 ± 0.041
I33F | -0.111 ± 0.046
I33G | -0.41 ± 0.033
I33K | -0.456 ± 0.056

Variant | abundance fitness
I33L | -0.082 ± 0.03
I33M | -0.144 ± 0.04
I33Q | -0.381 ± 0.04
I33R | -0.484 ± 0.039
I33S | -0.422 ± 0.031
I33V | -0.024 ± 0.033
I33W | -0.462 ± 0.052
I33Y | -0.527 ± 0.069
Q34C | -0.071 ± 0.066
Q34D | 0.079 ± 0.11
Q34F | 0.052 ± 0.14
Q34G | -0.005 ± 0.041
Q34H | -0.123 ± 0.15
Q34I | -0.169 ± 0.087
Q34K | 0.01 ± 0.053
Q34L | -0.02 ± 0.031
Q34M | 0.006 ± 0.042
Q34N | 0.053 ± 0.11
Q34P | -0.062 ± 0.04
Q34R | 0.001 ± 0.034
Q34S | -0.003 ± 0.047
Q34T | -0.008 ± 0.051
Q34V | 0.048 ± 0.045
